Data reported in article PMC10315710, “Diacylglycerol kinase ζ interacts with sphingomyelin synthase 1 and sphingomyelin synthase‐related protein via different regions” (FEBS Open Bio, 2023).
Each block holds one binder with its values, some of them ahead of it.

Target: T1, Twin‐Strep (TS)‐tagged DGKζ (TS‐DGKζ) (human, UniProt Q13574 1-928)
T1 construct: full-length (FL) DGKζ (DGKζ1, 104 kDa), human; no cleavage is reported and the protein is detected by anti-TS; also called purified DGKζ; source: HEK293 cells, purified (Strep-Tactin XT beads, without detergents); not shown: Twin-Strep, N-terminal, kept
T1 sequence (Q13574 whole entry): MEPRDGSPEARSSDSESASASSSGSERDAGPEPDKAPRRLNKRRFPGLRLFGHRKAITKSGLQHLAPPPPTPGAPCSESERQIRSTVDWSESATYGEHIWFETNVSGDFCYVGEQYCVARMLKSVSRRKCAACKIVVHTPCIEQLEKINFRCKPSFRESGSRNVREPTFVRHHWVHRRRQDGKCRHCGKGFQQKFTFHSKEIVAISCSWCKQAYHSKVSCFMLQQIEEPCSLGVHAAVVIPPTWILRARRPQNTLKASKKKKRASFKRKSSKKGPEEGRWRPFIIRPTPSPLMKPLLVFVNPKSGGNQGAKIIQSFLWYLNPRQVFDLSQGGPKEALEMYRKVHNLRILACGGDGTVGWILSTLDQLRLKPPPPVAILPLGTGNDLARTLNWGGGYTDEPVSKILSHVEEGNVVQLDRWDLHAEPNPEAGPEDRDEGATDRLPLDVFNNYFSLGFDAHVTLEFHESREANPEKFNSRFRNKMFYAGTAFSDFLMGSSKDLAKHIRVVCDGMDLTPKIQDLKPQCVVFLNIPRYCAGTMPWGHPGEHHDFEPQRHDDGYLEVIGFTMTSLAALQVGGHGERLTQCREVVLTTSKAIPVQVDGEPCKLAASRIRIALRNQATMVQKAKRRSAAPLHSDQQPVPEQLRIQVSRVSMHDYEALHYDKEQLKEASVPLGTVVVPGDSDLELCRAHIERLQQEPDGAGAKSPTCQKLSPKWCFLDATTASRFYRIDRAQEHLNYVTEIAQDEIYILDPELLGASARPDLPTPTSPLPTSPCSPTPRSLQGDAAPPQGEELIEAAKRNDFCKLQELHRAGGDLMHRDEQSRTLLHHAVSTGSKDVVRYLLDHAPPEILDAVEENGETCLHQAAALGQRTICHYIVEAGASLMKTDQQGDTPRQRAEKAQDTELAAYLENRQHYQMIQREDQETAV
Assay: pull-down; purified GST-SMS1-CT or GST-SMSr-NT on glutathione-Sepharose beads, purified Twin-Strep-tagged DGKζ added for 2 h at 4 °C; 20 mM Tris-HCl pH 7.5, 150 mM NaCl, 1 mM EDTA, 0.1% Triton X-100; western blot with anti-GST and anti-TS
Conditions: both partners purified

binding result: binds
B1: GST‐SMSr‐NT (domain or fragment, human, UniProt Q96LT4 1-151, looked up)
chain: MAGPNQLCIRRWTTKHVAVWLKDEGFFEYVDILCNKHRLDGITLLTLTEYDLRSPPLEIKVLGDIKRLMLSVRKLQKIHIDVLEEMGYNSDSPMGSMTPFISALQSTDWLCNGELSHDCDGPITDLNSDQYQYMNGKNKHSVRRLDPEYWK
notes: SMSr, N-terminal cytosolic region (contains SAMD); SMSr-NT is defined as aa 1–151; also called GST-fused SMSr‐NT; GST-tagged SMSr‐NT; source: bacterially expressed, purified (glutathione-Sepharose beads); not shown: GST, N-terminal, kept

binding result: binds
B2: GST‐SMS1‐CT (domain or fragment, human, UniProt Q86VZ5 348-413, looked up)
chain: HTMANQQVLKEASQMNLLARVWWYRPFQYFEKNVQGIVPRSYHWPFPWPVVHLSRQVKYSRLVNDT
notes: SMS1, C-terminal cytosolic region; SMS1-CT is defined as aa 348–413; also called GST-fused SMS1‐CT; GST-tagged SMS1‐CT; source: bacterially expressed, purified (glutathione-Sepharose beads); not shown: GST, N-terminal, kept
